From patent US20190002588A1 (NATIONAL UNIVERSITY CORPORATION CHIBA UNIVERSITY, published 2019) come the findings set out here.

One assay deals with T1, human Myl9-His (human, UniProt P24844 2-172, limits assumed).
T1 construct: Made in E. coli; the GST tag was cleaved with PreScission Protease
T1 sequence: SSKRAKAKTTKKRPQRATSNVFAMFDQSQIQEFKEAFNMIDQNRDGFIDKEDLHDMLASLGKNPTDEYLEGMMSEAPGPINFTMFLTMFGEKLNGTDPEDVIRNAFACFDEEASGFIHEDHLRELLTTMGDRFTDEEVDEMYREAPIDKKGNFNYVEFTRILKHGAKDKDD
The assay is described as follows: ELISA, human Myl9-His coated, anti-human IgG-HRP. As to the method: (§1) The binding ability against human Myl9 was evaluated following the steps below by ELISA. Human Myl3-His and human Myl9-His were coated onto the wells of a 96-well plate (Nunc). After an overnight incubation at 4° C., the wells were blocked at room temperature for one hour with 1× Block Ace (DS Pharma Biomedical Co., Ltd.). After washing three times with 0.02% Tween 20/PBS, seven serial dilutions by six folds of the chimeric and humanized antibodies were made from a concentration of 10 μg/mL and added to the wells. After incubation at room temperature for one hour and washing three times, horseradish peroxidase-labeled anti-human IgG antibody (Jackson ImmunoResearch Laboratories) was added, and this was incubated at room temperature for one hour. After washing 5 times, TMBZ (3,3′,5,5′-tetramethylbenzidine) solution was added to the wells, and this was incubated for 5-20 minutes at room temperature. An equal amount of reaction quenching solution (2N H₂SO₄) was added to the wells, and absorbance at 450 nm was read with a microplate reader (PerkinElmer).

A further assay deals with T2, human Myl12b-His (human, UniProt O14950 1-172).
T2 construct: Made in E. coli; GST tag cleaved with PreScission Protease; DTT-treated monomer
T2 sequence: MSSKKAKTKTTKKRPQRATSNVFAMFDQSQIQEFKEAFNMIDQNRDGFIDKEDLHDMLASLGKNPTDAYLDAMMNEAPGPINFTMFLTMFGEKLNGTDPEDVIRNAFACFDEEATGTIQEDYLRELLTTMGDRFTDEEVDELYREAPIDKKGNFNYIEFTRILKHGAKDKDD
The assay is described as follows: ELISA, human Myl12b-His coated, anti-human IgG-HRP. As to the method: (§2) The binding ability of chimeric and humanized antibodies prepared from Antibody A against human Myl12a and Myl12b was evaluated following the steps below by ELISA. Human Myl3-His, human Myl9-His, human Myl12a-His and human Myl12b-His were coated onto the wells of a 96-well plate (Nunc), respectively. After an overnight incubation at 4° C., the wells were blocked at room temperature for one hour with 1× Block Ace (DS Pharma Biomedical Co., Ltd.). After washing three times with 0.02% Tween 20/PBS, the chimeric and humanized antibodies were diluted at the concentration of 0.01, 0.1 and 1 μg/mL, respectively and added to the wells. After incubation at room temperature for one hour and washing three times, horseradish peroxidase-labeled anti-human IgG antibody (Jackson ImmunoResearch Laboratories) was added, and this was incubated at room temperature for one hour. After washing 5 times, TMBZ (3,3′,5,5′-tetramethylbenzidine) solution was added to the wells, and this was incubated for 5-20 minutes at room temperature. An equal amount of reaction quenching solution (2N H₂SO₄) was added to the wells, and absorbance at 450 nm was read with a microplate reader (Thermo Scientific).
In general terms: In an ELISA, binding on a coated surface is turned into a signal by an enzyme label.

In a further assay the target is T3, human Myl3-His (human, UniProt P08590 2-195, limits assumed).
T3 construct: Made in E. coli; the GST tag was cleaved with PreScission Protease
The assay is described as follows: ELISA, human Myl3-His coated, anti-human IgG-HRP. As to the method: as §1

The target of the next assay is T4, human Myl12a-His (human, UniProt P19105 1-171).
T4 construct: Made in E. coli; GST tag cleaved with PreScission Protease; DTT-treated monomer
T4 sequence: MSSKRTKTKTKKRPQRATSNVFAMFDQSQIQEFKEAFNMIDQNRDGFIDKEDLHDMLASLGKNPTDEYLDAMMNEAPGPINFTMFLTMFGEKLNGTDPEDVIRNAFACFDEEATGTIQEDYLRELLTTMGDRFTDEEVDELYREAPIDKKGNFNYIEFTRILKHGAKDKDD
The assay is described as follows: ELISA, human Myl12a-His coated, anti-human IgG-HRP. As to the method: as §2

T3 sequence (P08590 2-195 limits assumed): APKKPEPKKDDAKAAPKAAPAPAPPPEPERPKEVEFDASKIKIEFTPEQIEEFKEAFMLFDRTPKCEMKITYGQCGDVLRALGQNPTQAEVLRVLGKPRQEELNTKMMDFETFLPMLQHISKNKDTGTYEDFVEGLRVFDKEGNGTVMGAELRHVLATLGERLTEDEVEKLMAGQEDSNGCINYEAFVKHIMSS

B1: Humanized antibody No. 117 (antibody, human IgG2, kappa, V domains shown)
VH: QVQLVQSGAEVKKPGASVKVSCKASGYTFTDYEMHWVRQAPGQGLEWMGAIDPETGGTAYNQKFKGRATMTADTSTSTAYMELSSLRSEDTAVYYCADYDYDGFAYWGQGTLVTVSS
VL: DIVMTQSPLSLSITPGEQASISCRSSQSLVHSNGNTYLHWYLQKPGQSPQLLISKVSNRFSGVPDRFSGSGSGTDFTLKISRVEAEDVGVYFCSQNTHVPPLTFGGGTKVEIKR
notes: human IgG2 (V234A, G237A, C-terminal Lys deleted) / kappa; Expi293F, Protein A purified; also called HK2-6/L1-5
B1: the binding result in the assay with human Myl9-His is recorded as “binds”; with human Myl12b-His, “binds”; with human Myl3-His it was “no binding (tested: 10 µg/mL)”; with human Myl12a-His it was “binds”.

B2: Humanized antibody No. 122 (antibody, human IgG2, kappa, V domains shown)
VH: QVQLVQSGAEVKKPGSSVKVSCKASGYTFTDYEMHWVRQAPGQGLEWMGAIDPETGGTAYAQKFQGRATITADKSTSTAYMELRSLRSEDTAVYYCADYDYDGFAYWGQGTLVTVSS
VL: DIVMTQTPLSSPVTLGQPASISCRSSQSLVHSNGNTYLHWYQQRPGQPPRLLISKVSNRFSGVPDRFSGSGAGTDFTLKISRVEAEDVGVYFCSQNTHVPPLTFGGGTKVEIKR
notes: human IgG2 (V234A, G237A, C-terminal Lys deleted) / kappa; Expi293F, Protein A purified; also called HA1-4/L4-2
Take B2: the binding result with human Myl9-His is reported as “binds”; in the assay with human Myl12b-His it was “binds”; in the assay with human Myl3-His, “no binding (tested: 10 µg/mL)”; in the assay with human Myl12a-His, “binds”.

B3: Humanized antibody No. 121 (antibody, human IgG2, kappa, V domains shown)
VH: QVQLVQSGAEVKKPGSSVKVSCKASGYTFTDYEMHWVRQAPGQGLEWMGAIDPETGGTAYAQKFQGRVTITADKSTSTAYMELRSLRSEDTAVYYCADYDYDGFAYWGQGTLVTVSS
VL: DIVMTQTPLSSPVTLGQPASISCRSSQSLVHSNGNTYLHWYQQRPGQPPRLLISKVSNRFSGVPDRFSGSGAGTDFTLKISRVEAEDVGVYFCSQNTHVPPLTFGGGTKVEIKR
notes: human IgG2 (V234A, G237A, C-terminal Lys deleted) / kappa; Expi293F, Protein A purified; also called HA1-6/L4-2
As for B3, the binding result in the assay with human Myl9-His was “binds”; with human Myl12b-His, “binds”; with human Myl3-His, “no binding (tested: 10 µg/mL)”; with human Myl12a-His it was “binds”.

B4: Humanized antibody No. 123 (antibody, human IgG2, kappa, V domains shown)
VH: QVQLVQSGAEVKKPGSSVKVSCKASGGTFSDYEMHWVRQAPGQGLEWMGAIDPETGGTAYNQKFKGRVTITADKSTSTAYMELSSLRSEDTAVYYCADYDYDGFAYWGQGTLVTVSS
VL: DIVMTQTPLSSPVTLGQPASISCRSSQSLVHSNGNTYLHWYQQRPGQPPRLLISKVSNRFSGVPDRFSGSGAGTDFTLKISRVEAEDVGVYFCSQNTHVPPLTFGGGTKVEIKR
notes: human IgG2 (V234A, G237A, C-terminal Lys deleted) / kappa; Expi293F, Protein A purified; also called HK1-5/L4-2
Turning to B4, the binding result is “binds” in the assay with human Myl9-His, “binds” with human Myl12b-His, “no binding (tested: 10 µg/mL)” with human Myl3-His and “binds” with human Myl12a-His.

B5: Humanized antibody No. 129 (antibody, human IgG2, kappa, V domains shown)
VH: QVQLVQSGAEVKKPGASVKVSCKASGYTFTDYEMHWVRQAPGQGLEWMGAIDPETGGTAYNQKFKGRVTMTADKSTSTAYMELSSLRSEDTAVYYCADYDYDGFAYWGQGTLVTVSS
VL: DIVMTQTPLSSPVTLGQPASISCRSSQSLVHSNGNTYLHWYQQRPGQPPRLLISKVSNRFSGVPDRFSGSGAGTDFTLKISRVEAEDVGVYFCSQNTHVPPLTFGGGTKVEIKR
notes: human IgG2 (V234A, G237A, C-terminal Lys deleted) / kappa; Expi293F, Protein A purified; also called HK2-9/L4-2
On to B5, for which the binding result with human Myl9-His is given as “binds”; with human Myl12b-His it was “binds”; in the assay with human Myl3-His, “no binding (tested: 10 µg/mL)”; with human Myl12a-His it was “binds”.

B6: Humanized antibody No. 127 (antibody, human IgG2, kappa, V domains shown)
VH: QVQLVQSGAEVKKPGASVKVSCKASGYTFTDYEMHWVRQAPGQGLEWMGAIDPETGGTAYNQKFKGRVTMTADTSTSTAYMELSSLRSEDTAVYYCADYDYDGFAYWGQGTLVTVSS
VL: DIVMTQTPLSSPVTLGQPASISCRSSQSLVHSNGNTYLHWYQQRPGQPPRLLISKVSNRFSGVPDRFSGSGAGTDFTLKISRVEAEDVGVYFCSQNTHVPPLTFGGGTKVEIKR
notes: human IgG2 (V234A, G237A, C-terminal Lys deleted) / kappa; Expi293F, Protein A purified; also called HK2-5/L4-2
Turning to B6, the binding result with human Myl9-His was “binds”; in the assay with human Myl12b-His, “binds”; with human Myl3-His it was “no binding (tested: 10 µg/mL)”; in the assay with human Myl12a-His, “binds”.

B7: Humanized antibody No. 125 (antibody, human IgG2, kappa, V domains shown)
VH: QVQLVQSGAEVKKPGSSVKVSCKASGGTFSDYEMHWVRQAPGQGLEWMGAIDPETGGTAYNQKFKGRATITADKSTSTAYMELRSLRSEDTAVYYCADYDYDGFAYWGQGTLVTVSS
VL: DIVMTQTPLSSPVTLGQPASISCRSSQSLVHSNGNTYLHWYQQRPGQPPRLLISKVSNRFSGVPDRFSGSGAGTDFTLKISRVEAEDVGVYFCSQNTHVPPLTFGGGTKVEIKR
notes: human IgG2 (V234A, G237A, C-terminal Lys deleted) / kappa; Expi293F, Protein A purified; also called HK1-4/L4-2
On to B7, for which the binding result with human Myl9-His is “binds”; with human Myl12b-His, “binds”; with human Myl3-His it was “no binding (tested: 10 µg/mL)”; in the assay with human Myl12a-His, “binds”.

B8: Humanized antibody No. 126 (antibody, human IgG2, kappa, V domains shown)
VH: QVQLVQSGAEVKKPGSSVKVSCKASGYTFSDYEMHWVRQAPGQGLEWIGAIDPETGGTAYNQKFKGRATITADKSTSTAYMELRSLRSEDTAVYYCTDYDYDGFAYWGQGTLVTVSS
VL: DIVMTQTPLSSPVTLGQPASISCRSSQSLVHSNGNTYLHWYQQRPGQPPRLLISKVSNRFSGVPDRFSGSGAGTDFTLKISRVEAEDVGVYFCSQNTHVPPLTFGGGTKVEIKR
notes: human IgG2 (V234A, G237A, C-terminal Lys deleted) / kappa; Expi293F, Protein A purified; also called HK1-A/L4-2
On to B8, for which the binding result with human Myl9-His is given as “binds”; with human Myl12b-His, “binds”; with human Myl3-His, “no binding (tested: 10 µg/mL)”; in the assay with human Myl12a-His, “binds”.

B9: Humanized antibody No. 128 (antibody, human IgG2, kappa, V domains shown)
VH: QVQLVQSGAEVKKPGASVKVSCKASGYTFTDYEMHWVRQAPGQGLEWMGAIDPETGGTAYNQKFKGRATMTADTSTSTAYMELSSLRSEDTAVYYCADYDYDGFAYWGQGTLVTVSS
VL: DIVMTQTPLSSPVTLGQPASISCRSSQSLVHSNGNTYLHWYQQRPGQPPRLLISKVSNRFSGVPDRFSGSGAGTDFTLKISRVEAEDVGVYFCSQNTHVPPLTFGGGTKVEIKR
notes: human IgG2 (V234A, G237A, C-terminal Lys deleted) / kappa; Expi293F, Protein A purified; also called HK2-6/L4-2
As for B9, the binding result is recorded as “binds” with human Myl9-His, “binds” with human Myl12b-His, “no binding (tested: 10 µg/mL)” in the assay with human Myl3-His and “binds” in the assay with human Myl12a-His.

B10: Humanized antibody No. 118 (antibody, human IgG2, kappa, V domains shown)
VH: QVQLVQSGAEVKKPGASVKVSCKASGYTFTDYEMHWVRQAPGQGLEWMGAIDPETGGTAYNQKFKGRVTMTADKSTSTAYMELSSLRSEDTAVYYCADYDYDGFAYWGQGTLVTVSS
VL: DIVMTQSPLSLSITPGEQASISCRSSQSLVHSNGNTYLHWYLQKPGQSPQLLISKVSNRFSGVPDRFSGSGSGTDFTLKISRVEAEDVGVYFCSQNTHVPPLTFGGGTKVEIKR
notes: human IgG2 (V234A, G237A, C-terminal Lys deleted) / kappa; Expi293F, Protein A purified; also called HK2-9/L1-5
Turning to B10, the binding result with human Myl9-His was “binds”; with human Myl12b-His, “binds”; in the assay with human Myl3-His it was “no binding (tested: 10 µg/mL)”; with human Myl12a-His it was “binds”.

B11: Humanized antibody No. 124 (antibody, human IgG2, kappa, V domains shown)
VH: QVQLVQSGAEVKKPGSSVKVSCKASGGTFSDYEMHWVRQAPGQGLEWMGAIDPETGGTAYNQKFKGRVTITADKSTSTAYMELRSLRSEDTAVYYCADYDYDGFAYWGQGTLVTVSS
VL: DIVMTQTPLSSPVTLGQPASISCRSSQSLVHSNGNTYLHWYQQRPGQPPRLLISKVSNRFSGVPDRFSGSGAGTDFTLKISRVEAEDVGVYFCSQNTHVPPLTFGGGTKVEIKR
notes: human IgG2 (V234A, G237A, C-terminal Lys deleted) / kappa; Expi293F, Protein A purified; also called HK1-6/L4-2
For B11, the binding result is listed as “binds” with human Myl9-His, “binds” with human Myl12b-His, “no binding (tested: 10 µg/mL)” with human Myl3-His and “binds” with human Myl12a-His.
